Experimental data: US20190002588A1 (NATIONAL UNIVERSITY CORPORATION CHIBA UNIVERSITY, published 2019)
Numbering of substitutions follows the chain as printed. In names and notes the source's numbering stands.

T1: human Myl12a-His (human, UniProt P19105 1-171)
T1 construct: Made in E. coli; GST tag cleaved with PreScission Protease; DTT-treated monomer
T1 sequence: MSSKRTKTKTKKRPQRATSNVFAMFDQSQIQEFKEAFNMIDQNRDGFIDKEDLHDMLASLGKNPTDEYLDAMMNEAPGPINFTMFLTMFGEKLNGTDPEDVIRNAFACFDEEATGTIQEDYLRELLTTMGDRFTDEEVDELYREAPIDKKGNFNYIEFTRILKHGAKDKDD

T2: glutathione-S-transferase (GST)-His-mouse Myl9 (mouse, UniProt Q9CQ19 2-172)
T2 construct: The order of the pieces follows the printed name; not shown: glutathione-S-transferase tag of the pET42b vector
T2 sequence: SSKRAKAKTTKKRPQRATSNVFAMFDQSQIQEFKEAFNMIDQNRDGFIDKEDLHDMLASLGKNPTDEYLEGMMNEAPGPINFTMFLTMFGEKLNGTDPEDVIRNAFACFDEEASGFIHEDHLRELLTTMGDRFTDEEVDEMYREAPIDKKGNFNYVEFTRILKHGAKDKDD

T3: human Myl12b-His (human, UniProt O14950 1-172)
T3 construct: Made in E. coli; GST tag cleaved with PreScission Protease; DTT-treated monomer
T3 sequence: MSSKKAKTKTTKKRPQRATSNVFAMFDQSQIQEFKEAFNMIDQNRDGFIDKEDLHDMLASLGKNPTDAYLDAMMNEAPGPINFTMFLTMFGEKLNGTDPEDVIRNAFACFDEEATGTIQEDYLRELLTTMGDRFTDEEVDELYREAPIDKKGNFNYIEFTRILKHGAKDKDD

T4: human Myl9-His (human, UniProt P24844 2-172, limits assumed)
T4 construct: Made in E. coli; the GST tag was cleaved with PreScission Protease
T4 sequence: T2 sequence with N74S

B1: Humanized antibody No. 113 (antibody, human IgG2, kappa, V domains shown)
VH: QVQLVQSGAEVKKPGSSVKVSCKASGGTFSDYEMHWVRQAPGQGLEWMGAIDPETGGTAYNQKFKGRVTITADKSTSTAYMELRSLRSEDTAVYYCADYDYDGFAYWGQGTLVTVSS
VL: DIVMTQSPLSLSITPGEQASISCRSSQSLVHSNGNTYLHWYLQKPGQSPQLLISKVSNRFSGVPDRFSGSGSGTDFTLKISRVEAEDVGVYFCSQNTHVPPLTFGGGTKVEIKR
notes: human IgG2 (V234A, G237A, C-terminal Lys deleted) / kappa; Expi293F, Protein A purified; also called HK1-6/L1-5
B2: Humanized antibody No. 110 (antibody, human IgG2, kappa, V domains shown)
VH: B1 VH with G27Y, S30T, N61A, K65Q
VL: B1 VL
notes: human IgG2 (V234A, G237A, C-terminal Lys deleted) / kappa; Expi293F, Protein A purified; also called HA1-6/L1-5
B3: Humanized antibody No. 111 (antibody, human IgG2, kappa, V domains shown)
VH: B1 VH with G27Y, S30T, N61A, K65Q, V68A
VL: B1 VL
notes: human IgG2 (V234A, G237A, C-terminal Lys deleted) / kappa; Expi293F, Protein A purified; also called HA1-4/L1-5
B4: Humanized antibody No. 112 (antibody, human IgG2, kappa, V domains shown)
VH: B1 VH with R84S
VL: B1 VL
notes: human IgG2 (V234A, G237A, C-terminal Lys deleted) / kappa; Expi293F, Protein A purified; also called HK1-5/L1-5
B5: Humanized antibody No. 114 (antibody, human IgG2, kappa, V domains shown)
VH: B1 VH with V68A
VL: B1 VL
notes: human IgG2 (V234A, G237A, C-terminal Lys deleted) / kappa; Expi293F, Protein A purified; also called HK1-4/L1-5
B6: Humanized antibody No. 115 (antibody, human IgG2, kappa, V domains shown)
VH: B1 VH with G27Y, M48I, V68A, A97T
VL: B1 VL
notes: human IgG2 (V234A, G237A, C-terminal Lys deleted) / kappa; Expi293F, Protein A purified; also called HK1-A/L1-5
B7: Humanized antibody No. 116 (antibody, human IgG2, kappa, V domains shown)
VH: B1 VH with S16A, G27Y, S30T, I70M, K74T, R84S
VL: B1 VL
notes: human IgG2 (V234A, G237A, C-terminal Lys deleted) / kappa; Expi293F, Protein A purified; also called HK2-5/L1-5
B8: 3× Flag-mouse CD69 EC (with sugar chain) (receptor, not shown: small tags and cut ends)
chain: NVGKYNCPGLYEKLESSDHHVATCKNEWISYKRTCYFFSTTTKSWALAQRSCSEDAATLAVIDSEKDMTFLKRYSGELEHWIGLKNEANQTWKWANGKEFNSWFNLTGSGRCVSVNHKNVTAVDCEANFHWVCSKPSR
modifications: N-linked sugar chains present (made in Expi293F cells, not PNGase F treated)
notes: Secreted from Expi293F cells and purified on Anti-Flag M2 gel; also called 3× Flag mouse CD69 EC protein; mouse CD69 extracellular region protein
B9: PNGase F-treated 3× Flag-mouse CD69 EC (without sugar chain) (receptor, not shown: small tags and cut ends)
chain: B8 chain
modifications: N-linked sugar chain cleaved with PNGase F
notes: also called 3× Flag-mouse CD69 EC subjected to sugar chain cleaving treatment; mouse CD69 extracellular region protein

target: T1, human Myl12a-His; assay: ELISA, human Myl12a-His coated, anti-human IgG-HRP
Protocol: (§1) The binding ability of chimeric and humanized antibodies prepared from Antibody A against human Myl12a and Myl12b was evaluated following the steps below by ELISA. Human Myl3-His, human Myl9-His, human Myl12a-His and human Myl12b-His were coated onto the wells of a 96-well plate (Nunc), respectively. After an overnight incubation at 4° C., the wells were blocked at room temperature for one hour with 1× Block Ace (DS Pharma Biomedical Co., Ltd.). After washing three times with 0.02% Tween 20/PBS, the chimeric and humanized antibodies were diluted at the concentration of 0.01, 0.1 and 1 μg/mL, respectively and added to the wells. After incubation at room temperature for one hour and washing three times, horseradish peroxidase-labeled anti-human IgG antibody (Jackson ImmunoResearch Laboratories) was added, and this was incubated at room temperature for one hour. After washing 5 times, TMBZ (3,3′,5,5′-tetramethylbenzidine) solution was added to the wells, and this was incubated for 5-20 minutes at room temperature. An equal amount of reaction quenching solution (2N H₂SO₄) was added to the wells, and absorbance at 450 nm was read with a microplate reader (Thermo Scientific).

| Binder | binding result |
| --- | --- |
| B1 | binds |
| B2 | binds |
| B3 | binds |
| B4 | binds |
| B5 | binds |
| B6 | binds |
| B7 | binds |

target: T2, glutathione-S-transferase …; assay: ELISA, GST-His-mouse Myl9 coated, anti-Flag-HRP
Protocol: Next, ELISA was performed in order to analyze the presence or absence of association between mouse Myl9 and mouse CD69 (FIGS. 3A and 3B). Specifically, GST-His-mouse Myl3 protein and GST-His-mouse Myl9 protein were added at a concentration of 5 μg/mL, and this was incubated overnight at 4° C. to immobilize them onan ELISA plate. On the next day, Block Ace (Sumitomo Dainippon Pharma Co., Ltd.) was employed to allow blocking at […] temperature for one hour, and then this was washed three times with a wash buffer (50 mM HEPES (pH 6.5), 150 mM NaCl, and 0.02% Tween 20). Different concentration of 3× Flag mouse CD69 EC protein was added to each well, and this was reacted at room temperature for one and a half hours. In FIG. 3B, 3× Flag mouse CD69 EC protein in which the N-linked sugar chain was cleaved with PNGase F (NEB) was employed. The cleaving treatment of the N-linked sugar chain was performed by employing 1,000 U of PNGase F for 4 μg of 3× Flag mouse CD69 EC protein. After washing three times with the wash buffer, HRP-labeled anti-Flag (M2) antibody (Sigma) was added, this was reacted at room temperature for one hour, and then washed five times with the wash buffer. TMB solution (BIO-RAD) was used as the coloring substrate, and the reaction was quenched with 1N H₂SO₄. SpectraMAX Paradigm (Molecular Device) was employed to measure the value at 450 nm.

| Binder | binding result |
| --- | --- |
| B8 | binds |
| B9 | binds |

target: T5, human Myl3-His (human, UniProt P08590 2-195, limits assumed); assay: ELISA at 0.01, 0.1 and 1 µg/mL, human Myl3-His coated, anti-human IgG-HRP
T5 construct: Made in E. coli; the GST tag was cleaved with PreScission Protease
Protocol: as §1

T5 sequence (P08590 2-195 limits assumed): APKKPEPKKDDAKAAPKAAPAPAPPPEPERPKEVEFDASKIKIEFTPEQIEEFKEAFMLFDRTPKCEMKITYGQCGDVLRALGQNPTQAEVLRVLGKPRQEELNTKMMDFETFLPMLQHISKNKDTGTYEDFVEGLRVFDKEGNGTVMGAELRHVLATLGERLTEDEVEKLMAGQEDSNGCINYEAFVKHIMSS

| Binder | binding result |
| --- | --- |
| B1 | no binding (tested: 1 µg/mL) |
| B2 | no binding (tested: 1 µg/mL) |
| B3 | no binding (tested: 1 µg/mL) |
| B4 | no binding (tested: 1 µg/mL) |
| B5 | no binding (tested: 1 µg/mL) |
| B6 | no binding (tested: 1 µg/mL) |
| B7 | no binding (tested: 1 µg/mL) |

target: T3, human Myl12b-His; assay: ELISA, human Myl12b-His coated, anti-human IgG-HRP
Protocol: as §1

| Binder | binding result |
| --- | --- |
| B1 | binds |
| B2 | binds |
| B3 | binds |
| B4 | binds |
| B5 | binds |
| B6 | binds |
| B7 | binds |

target: T4, human Myl9-His; assay: ELISA, human Myl9-His coated, anti-human IgG-HRP
Protocol: The binding ability against human Myl9 was evaluated following the steps below by ELISA. Human Myl3-His and human Myl9-His were coated onto the wells of a 96-well plate (Nunc). After an overnight incubation at 4° C., the wells were blocked at room temperature for one hour with 1× Block Ace (DS Pharma Biomedical Co., Ltd.). After washing three times with 0.02% Tween 20/PBS, seven serial dilutions by six folds of the chimeric and humanized antibodies were made from a concentration of 10 μg/mL and added to the wells. After incubation at room temperature for one hour and washing three times, horseradish peroxidase-labeled anti-human IgG antibody (Jackson ImmunoResearch Laboratories) was added, and this was incubated at room temperature for one hour. After washing 5 times, TMBZ (3,3′,5,5′-tetramethylbenzidine) solution was added to the wells, and this was incubated for 5-20 minutes at room temperature. An equal amount of reaction quenching solution (2N H₂SO₄) was added to the wells, and absorbance at 450 nm was read with a microplate reader (PerkinElmer).

| Binder | binding result |
| --- | --- |
| B1 | binds |
| B2 | binds |
| B3 | binds |
| B4 | binds |
| B5 | binds |
| B6 | binds |
| B7 | binds |
